The target of test [1] is T1, human CD73 on cells (human, UniProt P21589 27-549).
T1 sequence: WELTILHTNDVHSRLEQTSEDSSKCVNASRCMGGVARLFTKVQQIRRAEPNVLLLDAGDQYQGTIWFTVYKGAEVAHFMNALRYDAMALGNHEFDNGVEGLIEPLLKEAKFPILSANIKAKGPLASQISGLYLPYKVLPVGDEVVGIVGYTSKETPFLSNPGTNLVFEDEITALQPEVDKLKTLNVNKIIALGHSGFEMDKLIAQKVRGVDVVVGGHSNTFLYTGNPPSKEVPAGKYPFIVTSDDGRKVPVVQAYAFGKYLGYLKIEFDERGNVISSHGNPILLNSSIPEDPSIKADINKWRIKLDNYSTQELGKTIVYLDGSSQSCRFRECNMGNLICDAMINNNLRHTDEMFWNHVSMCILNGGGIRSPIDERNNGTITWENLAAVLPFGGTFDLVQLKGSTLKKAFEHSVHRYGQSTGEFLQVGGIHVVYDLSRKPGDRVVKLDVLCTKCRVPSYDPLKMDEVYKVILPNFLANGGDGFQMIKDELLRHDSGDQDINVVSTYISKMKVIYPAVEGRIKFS
The test can be described thus: cell-based or functional assay.

Another test concerns the target T2, N-hCD73-his (human, UniProt P21589 26-336).
T2 construct: also called hCD73(26-336)His; CD73(26-336)His; not shown: His tag
T2 sequence: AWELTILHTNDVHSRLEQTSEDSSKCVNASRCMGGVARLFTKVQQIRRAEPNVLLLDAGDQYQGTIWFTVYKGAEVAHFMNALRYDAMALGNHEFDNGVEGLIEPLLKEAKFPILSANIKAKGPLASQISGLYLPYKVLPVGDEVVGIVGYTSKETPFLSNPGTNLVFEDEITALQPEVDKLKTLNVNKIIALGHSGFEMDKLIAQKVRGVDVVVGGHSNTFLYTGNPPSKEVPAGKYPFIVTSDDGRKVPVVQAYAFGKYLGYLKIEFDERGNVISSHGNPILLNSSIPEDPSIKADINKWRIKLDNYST
Briefly: SPR. An excerpt:
One experimental format tested the binding of the N-terminal domain of hCD73 (consisting of residues 26-336 of human CD73; termed N-hCD73) to antibodies that were captured on immobilized protein A surfaces. For these experiments, protein A (Pierce) was immobilized to a density of 3000-4000 RU on flow cells 1-4 of a CM5 sensor chip (GE Healthcare) using standard ethyl(dimethylaminopropyl) carbodiimide (EDC)/N-hydroxysuccinimide (NHS) chemistry, with ethanolamine blocking, in a running buffer of 0.01 M HEPES pH 7.4, 0.15 M NaCl, 3 mM EDTA, 0.005% v/v tween 20. […] The running buffer for the kinetic experiments was 10 mM sodium phosphate, 130 mM sodium chloride, 0.05% tween 20, pH 7.1. The surfaces were regenerated after each cycle using two 30 s pulses of 10 mM glycine pH 1.5 at a flow rate of 30 μl/min. Sensogram data was double-referenced and then fitted to a 1:1 Langmuir model using Biacore T100 evaluation software v2.0.4, to determine the association rate constant (ka), the dissociation rate constant (kd), and the equilibrium dissociation constant (KD).
A general note: Surface plasmon resonance follows binding to a sensor surface in real time, without labels.

Test [2] has as its target T1, human CD73 on cells. The test can be described thus: cell-based or functional assay. This is another data set of the same source.

B1: 4D4 (antibody, human IgG2, kappa)
heavy: QVQLVESGGGVVQPGRSLRLSCAASGFTFSNYGMHWVRQAPGKGLEWVAVIWYDESNKYYADSVKGRFTISRDNSKNTLFLQMNSLRAEDTAVYYCARGYNSRWYPDAFDIWGQGTMVTVSSASTKGPSVFPLAPCSRSTSESTAALGCLVKDYFPEPVTVSWNSGALTSGVHTFPAVLQSSGLYSLSSVVTVPSSNFGTQTYTCNVDHKPSNTKVDKTVERKCCVECPPCPAPPVAGPSVFLFPPKPKDTLMISRTPEVTCVVVDVSHEDPEVQFNWYVDGVEVHNAKTKPREEQFNSTFRVVSVLTVVHQDWLNGKEYKCKVSNKGLPAPIEKTISKTKGQPREPQVYTLPPSREEMTKNQVSLTCLVKGFYPSDIAVEWESNGQPENNYKTTPPMLDSDGSFFLYSKLTVDKSRWQQGNVFSCSVMHEALHNHYTQKSLSLSPGK
light: not shown
notes: IgG2; also called 4D4-1
In general, Kd refers to the constant that tells how readily two partners part at equilibrium. Take B1: the “Ymax, CD73 internalization (100 nM 11F11 set to 100%)” value with human CD73 on cells [1] amounted to 104%. This molecule had a Kd with N-hCD73-his of approximately 5 nM.

B2: CD73.11-IgG2-C219S (antibody)
heavy: QVQLVESGGGVVQPGRSLRLSCAASGFTFSNYGMHWVRQAPGKGLEWVAVIWYDESNKYYADSVKGRFTISRDNSKNTLFLQMNSLRAEDTAVYYCARGYNSRWYPDAFDIWGQGTMVTVSSASTKGPSVFPLAPCSRSTSESTAALGCLVKDYFPEPVTVSWNSGALTSGVHTFPAVLQSSGLYSLSSVVTVPSSNFGTQTYTCNVDHKPSNTKVDKTVERKSCVECPPCPAPPVAGPSVFLFPPKPKDTLMISRTPEVTCVVVDVSHEDPEVQFNWYVDGVEVHNAKTKPREEQFNSTFRVVSVLTVVHQDWLNGKEYKCKVSNKGLPAPIEKTISKTKGQPREPQVYTLPPSREEMTKNQVSLTCLVKGFYPSDIAVEWESNGQPENNYKTTPPMLDSDGSFFLYSKLTVDKSRWQQGNVFSCSVMHEALHNHYTQKSLSLSPG
light: not shown
notes: also called CD73.11-IgG2CS
In turn, B2 displayed a Kd with N-hCD73-his of approximately 5 nM.

B3: CD73.4-IgG2-C219S (antibody)
heavy: QVQLVESGGGVVQPGRSLRLSCAASGFTFSNYGMHWVRQAPGKGLEWVAVILYDGSNKYYPDSVKGRFTISRDNSKNTLYLQMNSLRAEDTAVYYCARGGSSWYPDSFDIWGQGTMVTVSSASTKGPSVFPLAPCSRSTSESTAALGCLVKDYFPEPVTVSWNSGALTSGVHTFPAVLQSSGLYSLSSVVTVPSSNFGTQTYTCNVDHKPSNTKVDKTVERKSCVECPPCPAPPVAGPSVFLFPPKPKDTLMISRTPEVTCVVVDVSHEDPEVQFNWYVDGVEVHNAKTKPREEQFNSTFRVVSVLTVVHQDWLNGKEYKCKVSNKGLPAPIEKTISKTKGQPREPQVYTLPPSREEMTKNQVSLTCLVKGFYPSDIAVEWESNGQPENNYKTTPPMLDSDGSFFLYSKLTVDKSRWQQGNVFSCSVMHEALHNHYTQKSLSLSPG
light: not shown
notes: also called CD73.4-IgG2CS; CD73.4-IgG2.3; copies: 2 + 2
B3 displayed a Kd with N-hCD73-his of 1.1 nM.

B4: CD73.10-IgG2-C219S (antibody)
heavy: QVQLVESGGGVVQPGRSLRLSCAASGFTFSNYGMHWVRQAPGKGLEWVAVIWYDESNKYYPDSVKGRFTISRDNSKNTLYLQMNSLRAEDTAVYYCARGGSSWYPDSFDIWGQGTMVTVSSASTKGPSVFPLAPCSRSTSESTAALGCLVKDYFPEPVTVSWNSGALTSGVHTFPAVLQSSGLYSLSSVVTVPSSNFGTQTYTCNVDHKPSNTKVDKTVERKSCVECPPCPAPPVAGPSVFLFPPKPKDTLMISRTPEVTCVVVDVSHEDPEVQFNWYVDGVEVHNAKTKPREEQFNSTFRVVSVLTVVHQDWLNGKEYKCKVSNKGLPAPIEKTISKTKGQPREPQVYTLPPSREEMTKNQVSLTCLVKGFYPSDIAVEWESNGQPENNYKTTPPMLDSDGSFFLYSKLTVDKSRWQQGNVFSCSVMHEALHNHYTQKSLSLSPG
light: not shown
notes: also called CD73.10-IgG2CS; CD73.10-IgG2S
Consider B4, for which the “Ymax, CD73 internalization (100 nM 11F11 set to 100%)” value in the test with human CD73 on cells [1] amounted to 99%. In the test with N-hCD73-his, this molecule came in with a Kd of approximately 5 nM.

B5: CD73.10-IgG2-C219S-IgG1.1f (antibody)
heavy: QVQLVESGGGVVQPGRSLRLSCAASGFTFSNYGMHWVRQAPGKGLEWVAVIWYDESNKYYPDSVKGRFTISRDNSKNTLYLQMNSLRAEDTAVYYCARGGSSWYPDSFDIWGQGTMVTVSSASTKGPSVFPLAPCSRSTSESTAALGCLVKDYFPEPVTVSWNSGALTSGVHTFPAVLQSSGLYSLSSVVTVPSSNFGTQTYTCNVDHKPSNTKVDKTVERKSCVECPPCPAPPVAGPSVFLFPPKPKDTLMISRTPEVTCVVVDVSHEDPEVKFNWYVDGVEVHNAKTKPREEQYNSTYRVVSVLTVLHQDWLNGKEYKCKVSNKALPSSIEKTISKAKGQPREPQVYTLPPSREEMTKNQVSLTCLVKGFYPSDIAVEWESNGQPENNYKTTPPVLDSDGSFFLYSKLTVDKSRWQQGNVFSCSVMHEALHNHYTQKSLSLSPG
light: not shown
As to B5, the “Ymax, CD73 internalization (100 nM 11F11 set to 100%)” value with human CD73 on cells [1] amounted to 99%.

B6: CD73.4-IgG2-C219S-IgG1.1f (antibody)
heavy: QVQLVESGGGVVQPGRSLRLSCAASGFTFSNYGMHWVRQAPGKGLEWVAVILYDGSNKYYPDSVKGRFTISRDNSKNTLYLQMNSLRAEDTAVYYCARGGSSWYPDSFDIWGQGTMVTVSSASTKGPSVFPLAPCSRSTSESTAALGCLVKDYFPEPVTVSWNSGALTSGVHTFPAVLQSSGLYSLSSVVTVPSSNFGTQTYTCNVDHKPSNTKVDKTVERKSCVECPPCPAPPVAGPSVFLFPPKPKDTLMISRTPEVTCVVVDVSHEDPEVKFNWYVDGVEVHNAKTKPREEQYNSTYRVVSVLTVLHQDWLNGKEYKCKVSNKALPSSIEKTISKAKGQPREPQVYTLPPSREEMTKNQVSLTCLVKGFYPSDIAVEWESNGQPENNYKTTPPVLDSDGSFFLYSKLTVDKSRWQQGNVFSCSVMHEALHNHYTQKSLSLSPG
light: not shown
modifications: N-terminal Gln 94% pyro-Q; 97% of heavy chains lack the C-terminal Lys
In the case of B6, the “Ymax, CD73 internalization (100 nM 11F11 set to 100%)” value with human CD73 on cells [1] was 97%.

B7: 11A6 (antibody, human IgG1, kappa, V domains shown)
VH: EVQLVESGGNLVQPGRSLRLSCAASGFTFDDYAMHWVRQAPGKGLEWVSGISWNNNDIGYADSVKGRFIISRDNAKNSLYLQMNSLRPEDTALYYCVKGYYVILTGLDYWGQGTPVTVSS
VL: DIQMTQSPSSLSASVGDRVTITCRASQGISSWLAWYQQKPEKAPKSLIYAASSLQSGVPSRFSGSGSGTDFTLTISSLQPEDFATYYCQQYNSYPLTFGGGTKVEIKR
On to B7, for which the “Ymax, cAMP HTRF assay (100 nM 11F11 set to 100%)” value with human CD73 on cells [2] was found to be 84%.

B8: 4C3 (antibody, human IgG1, kappa, V domains shown)
VH: EVQLVESGGGLVQPGRSLRLSCAASGFTFDDYAMHWVRQAPGKGLEWVSGISWKSGSIGYADSVKGRFTISRDNAKNSLYLQMNSLRAEDTALYYCVKGYYVILTGLDYWGQGTLVTVSS
VL: not shown
notes: IgG1za; also called 4C3-1
On to B8, for which the “Ymax, cAMP HTRF assay (100 nM 11F11 set to 100%)” value in the test with human CD73 on cells [2] was found to be 80%. For the same molecule, the Kd with N-hCD73-his is 100 to 200 nM.

B9: 7A11 (antibody, human IgG1, kappa, V domains shown)
VH: EVQLVESGGGLVQTGRSLRLSCAASGFTFDDYAMHWVRQAPGKGLEWVSDISWNSDIIGYADSVKGRFTISRDNAKNSLYLQMNSLRAEDTALYYCAKDIYGSGSSFFDYWGQGILVTVSS
VL: DIQMTQSPSSLSASVGDRVTITCRASQYISSWLAWYQQKPEKAPKSLIYAASSLQSGVPSRFSGSGSGTDFTLTISSLQPEDFATYYCQQYHSYPPTFGQGTRLEIKR
Take B9: the “Ymax, cAMP HTRF assay (100 nM 11F11 set to 100%)” value in the test with human CD73 on cells [2] came to 45%. Besides, the “Ymax, CD73 internalization (100 nM 11F11 set to 100%)” value in the test with human CD73 on cells [1] was found to be 50%.

B10: 10D2 (antibody, human IgG4, kappa, V domains shown)
VH: QVQLVESGGGVVQPGRSLRLSCAASGFTFSNYGLHWVRQAPGKGLEWVAVIRYDGSNKYYADSVKGRFTISRDNSKNTLYLQMSSLRAEDTAVYYCARGGSSWYPDGLDVWGQGTTVTVSS
VL: DIQMTQSPSSLSASVGDRVTITCRASQGISSWLAWYQQKPEKAPKSLIYAASSLQSGVPSRFSGSGSGTDFTLTISSLQPEDFATYYCQQYNSYPLTFGGGTKVEIKR
In the case of B10, in the test with human CD73 on cells [1], the “Ymax, CD73 internalization (100 nM 11F11 set to 100%)” value was determined as 29%.

B11: 24H2 (antibody, human IgG4, kappa, V domains shown)
VH: QVQLVESGGGVVQPGRSLRLSCAASGFTFSNYGMHWVRQAPGKGLEWVAVIWYDGGNKYYADSVKGRFTISRDNSKNTLFLQMNSLRAEDTAVYYCARGGSSWYPDAFDIWGQGTMVTVSS
VL: DIQMTQSPSSLSASVGDRVTITCRASQGISSWLAWYQQKPEKAPKSLIYAASSLQSGVPSRFSGSGSGTDFTLTISSLQPEDFATYYCQQYNSYPLTFGGGTKVEIKR
Regarding B11, the “Ymax, CD73 internalization (100 nM 11F11 set to 100%)” value with human CD73 on cells [1] was determined as 51%.

B12: 5F8 (antibody, human IgG1, kappa, V domains shown)
VH: EVQLVESGGGLVQPGGSLRLSCAASGFTFSSYWMHWVRQAPGKGLVWVSRIISDGSSTGYADSVKGRFTISRDNAKNTLYLQMNSLRAEDTAVYYCAREFSSGWYFDYWGQGTLVTVSS
VL: AIQLTQSPSSLSASVGDRVTITCRASQGISSALAWYQQKPGKAPKLLIYDASSLESGVPSRFSGSGSGTDFTLTISSLQPEDFATYYCQQFSSYPRTFGQGTKVEIKR
B12: the “Ymax, cAMP HTRF assay (100 nM 11F11 set to 100%)” value with human CD73 on cells [2] came to 80%.

These data come from US20180127513A1 (Bristol-Myers Squibb, published 2018).
